± gives the uncertainty stated by the source.
Assay: self-splicing fitness, log relative to wild type (ln ratio); higher = more splicing; Tetrahymena group I intron in knt gene, E. coli kanamycin selection, DiMSum; sequences stand for … in CUCUCU…GGAGGGAAAAGUUAUCAGGCAUGCACCUGGUAGCUAGUCUUUAAACCAAUAGAUUGCAUCGGUUUAAAAGGCAAGACCGUCAAAUUGCGGGAAAGGGGUCAACAGCCGUUCAGUACCAAGUCUCAGGGGAAACUUUGAGAUGGCCUUGCAAAGGGUAUGGUAAUAAGCUGACGGACAUGGUCCUAACCACGCAGCCAAGUCCUAAGUCAACAGAUCUUCUGUUGAUAUGGAUGCAGUUCACAGACUAAAUGUCGGUCGGGGAAGAUGUAUUCUUCUCAUAAGAUAUAGUCGGACCUCUCCUUAAUGGGAGCUAGCGGAUGAAGUGAUGCAACACUGGAGCCGCUGGGAACUAAUUUGUAUGCGAAAGUAUAUUGAUUAGUUUUGGAGUACUCGUGGUCG
Summary of the method: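 Library with all eight P1ex-region intron nucleotides randomised, intron inside the knt kanamycin-resistance gene on pET-22b(+), in E. coli BL21(DE3). Cells grew overnight at 37°C or 30°C on LB agar with or without 25 μg/mL kanamycin (plus 100 μg/mL carbenicillin, 50 μM IPTG, 0.2% rhamnose), in six replicate transformations. Pooled colonies were amplicon-sequenced on Illumina HiSeq 2500. DiMSum fitness is the error-weighted combination of wild-type-normalised replicate fold changes, kanamycin versus none.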

Sequence | self-splicing fitness (ln) (30 °C) | self-splicing fitness (ln) (37 °C)
UUUCAGCAAUAUUACGUACC | -3.51 ± 0.25 | -2.14 ± 0.17
AGGUAGCAAUAUUACGGAAC | -3.629 ± 0.035 | -2.2 ± 0.042
AUGUAGCAAUAUUACGUCUA | -1.25 ± 0.14 | -0.893 ± 0.15
UCGUAGCAAUAUUACGAACU | -3.21 ± 0.38 | -2.63 ± 0.33
GUCUAGCAAUAUUACGAUUC | -0.168 ± 0.094 | 0.284 ± 0.1
GCCUAGCAAUAUUACGAGCU | -1.03 ± 0.14 | -1.51 ± 0.14
GCAUAGCAAUAUUACGCGGA |  | -1.69 ± 0.31
UGCUAGCAAUAUUACGGCUU | -0.619 ± 0.13 | -1.06 ± 0.15
UGUUAGCAAUAUUACGCCGG | -0.866 ± 0.13 | -0.696 ± 0.19
CCCCAGCAAUAUUACGUGAC | -2.7 ± 0.11 | -3.24 ± 0.21
CGUAAGCAAUAUUACGAACA | -1.23 ± 0.19 | -0.207 ± 0.22
GGUUAGCAAUAUUACGGCGG | -2.05 ± 0.15 | -1.68 ± 0.16
UUGAAGCAAUAUUACGUAGG | -1.27 ± 0.11 | -0.153 ± 0.12
CAAGAGCAAUAUUACGCUUC | -3.61 ± 0.37 | -2.23 ± 0.43
CGUCAGCAAUAUUACGCCUG | -0.469 ± 0.099 | 0.582 ± 0.12
GAGGAGCAAUAUUACGCUCU | -2.18 ± 0.42 | -1.73 ± 0.47
CCCAAGCAAUAUUACGCCAC | -2.48 ± 0.25 | -1.49 ± 0.22
CCCCAGCAAUAUUACGCUAA | -3.55 ± 0.18 | -3.2 ± 0.21
UUACAGCAAUAUUACGAAGU | -3.35 ± 0.29 | -2.7 ± 0.36
GGAGAGCAAUAUUACGAGGA | -3.52 ± 0.31 | -2.44 ± 0.19
AUCAAGCAAUAUUACGUCAU | -2.05 ± 0.088 | -1.45 ± 0.088
GGACAGCAAUAUUACGCUUU | -1.39 ± 0.065 | -0.538 ± 0.087
UAACAGCAAUAUUACGGAAA | -2.91 ± 0.23 | -1.11 ± 0.14
CCGAAGCAAUAUUACGACUU | -2.97 ± 0.22 | -3.91 ± 0.39

Sequence | self-splicing fitness (ln) (30 °C) | self-splicing fitness (ln) (37 °C)
CACGAGCAAUAUUACGGCUC | -2.71 ± 0.29 | -1.6 ± 0.28
CAAAAGCAAUAUUACGGCUC | -1.56 ± 0.12 | 0.0316 ± 0.14
GACCAGCAAUAUUACGAUUC | -0.023 ± 0.075 | -0.543 ± 0.08
CCUUAGCAAUAUUACGGUUA | -3.48 ± 0.24 | -2.24 ± 0.16
GGGAAGCAAUAUUACGGGGG | -4.18 ± 0.35 | -3.18 ± 0.32
UUGCAGCAAUAUUACGUGAC | -1.55 ± 0.11 | -0.799 ± 0.13
ACAGAGCAAUAUUACGAGAC | -3.23 ± 0.37 | -2.67 ± 0.31
AUCCAGCAAUAUUACGGUGC | -1.6 ± 0.096 | -1.27 ± 0.14
CGUAAGCAAUAUUACGCAGG | -2.25 ± 0.094 | -1.02 ± 0.11
CUCAAGCAAUAUUACGACGC | -1.75 ± 0.24 | -2.18 ± 0.42
CCGGAGCAAUAUUACGAGCG | -0.715 ± 0.082 | 0.256 ± 0.12
ACAUAGCAAUAUUACGCGAG | -1.01 ± 0.07 | -0.654 ± 0.079
GGUAAGCAAUAUUACGUCAU | -0.725 ± 0.14 | 0.713 ± 0.2
GUGUAGCAAUAUUACGUGUC | -2.67 ± 0.21 | -0.104 ± 0.12
UGCUAGCAAUAUUACGUGCG | -1.94 ± 0.1 | -1.7 ± 0.12
AAGGAGCAAUAUUACGUGGC | -3.79 ± 0.19 | -2.37 ± 0.2
GGCUAGCAAUAUUACGAUGC | -1.03 ± 0.15 | -0.519 ± 0.28
AAGUAGCAAUAUUACGUAAG | -2.48 ± 0.13 | -1.43 ± 0.14
GCCCAGCAAUAUUACGUGCA | -1.47 ± 0.083 | -0.691 ± 0.083
ACGUAGCAAUAUUACGCGUG | -1.73 ± 0.094 | -0.962 ± 0.11
AACUAGCAAUAUUACGGAAC | -2.99 ± 0.21 | -2.08 ± 0.3
AACAAGCAAUAUUACGCGGC | -3.28 ± 0.26 | -1.71 ± 0.19
GUUCAGCAAUAUUACGGUAA | -1.21 ± 0.07 | -0.563 ± 0.07
UCGUAGCAAUAUUACGCCAG | -1.49 ± 0.3 | 

Sequence | self-splicing fitness (ln) (30 °C) | self-splicing fitness (ln) (37 °C)
UAAGAGCAAUAUUACGGCGG | -2.73 ± 0.22 | -1.62 ± 0.22
UACAAGCAAUAUUACGUCCC | -1.25 ± 0.39 | -1.58 ± 0.42
CCAUAGCAAUAUUACGGUCC | -2.72 ± 0.26 | -1.99 ± 0.42
AAGCAGCAAUAUUACGGAGC | -3.81 ± 0.37 | -3.05 ± 0.23
UCUAAGCAAUAUUACGCCCG | -0.879 ± 0.21 | 0.0184 ± 0.38
AUGUAGCAAUAUUACGAUAC | -3.33 ± 0.28 | -1.82 ± 0.21
CUAGAGCAAUAUUACGAGCU | -3.73 ± 0.31 | -3.37 ± 0.28
CUCCAGCAAUAUUACGCAAA | -3.21 ± 0.21 | -2.68 ± 0.26
AAGUAGCAAUAUUACGGCCG | -1.34 ± 0.12 | -0.293 ± 0.18
CAGUAGCAAUAUUACGUGGC | -2.97 ± 0.28 | -2.36 ± 0.29
CAUUAGCAAUAUUACGGUAC | -1.9 ± 0.16 | -2.07 ± 0.46
CAAGAGCAAUAUUACGAACG | -0.336 ± 0.063 | 0.335 ± 0.079
AAGCAGCAAUAUUACGGACG | -2.62 ± 0.14 | -0.565 ± 0.14
GAAAAGCAAUAUUACGGAGC | -2.46 ± 0.16 | -0.743 ± 0.12
UAGAAGCAAUAUUACGCGUA | -0.436 ± 0.11 | -0.472 ± 0.12
CCAAAGCAAUAUUACGUCGA | -3.66 ± 0.15 | -2.92 ± 0.18
GAAAAGCAAUAUUACGCGGG | -3.37 ± 0.2 | -2.21 ± 0.18
CGUCAGCAAUAUUACGUGCU | -3.04 ± 0.26 | -2.39 ± 0.27
AUGAAGCAAUAUUACGGGCU | -1.52 ± 0.11 | -0.445 ± 0.13
CUCCAGCAAUAUUACGACGU | -3.83 ± 0.21 | -2.01 ± 0.21
UAGUAGCAAUAUUACGAACU | -0.595 ± 0.16 | -1.05 ± 0.15
GGGAAGCAAUAUUACGCUAU | -2.75 ± 0.19 | -0.951 ± 0.14
AGUCAGCAAUAUUACGAGGU | -3.4 ± 0.26 | -2.62 ± 0.24
UCAUAGCAAUAUUACGUAAU | -3.87 ± 0.48 | -2.61 ± 0.28

Sequence | self-splicing fitness (ln) (30 °C) | self-splicing fitness (ln) (37 °C)
AUUGAGCAAUAUUACGUGAA | -2.5 ± 0.15 | -1.74 ± 0.27
GUAUAGCAAUAUUACGCAAA | -3.07 ± 0.29 | -1.7 ± 0.25
AGCAAGCAAUAUUACGGCUC | -4.6 ± 0.27 | -3.41 ± 0.4
AACAAGCAAUAUUACGUUAG | -4.21 ± 0.22 | -3.26 ± 0.24
AUGUAGCAAUAUUACGCCUA | -0.493 ± 0.17 | 0.198 ± 0.23
GAAAAGCAAUAUUACGUGAA | -1.56 ± 0.065 | -1.33 ± 0.085
ACGCAGCAAUAUUACGUAGG | -2.12 ± 0.096 | -2.86 ± 0.13
AACAAGCAAUAUUACGUUCA | -1.41 ± 0.053 | -0.805 ± 0.063
GGAAAGCAAUAUUACGCACA | -0.416 ± 0.091 | 0.0226 ± 0.14
AACAAGCAAUAUUACGAGAA | -2.78 ± 0.32 | -2.03 ± 0.21
ACGCAGCAAUAUUACGCUGU | -2.71 ± 0.14 | -3.83 ± 0.28
GGGAAGCAAUAUUACGAUUG | -3.59 ± 0.21 | -3.25 ± 0.3
AACUAGCAAUAUUACGCACA | -0.559 ± 0.061 | 0.145 ± 0.077
AAGCAGCAAUAUUACGGGCU | -1.64 ± 0.14 | -1.93 ± 0.21
UUGUAGCAAUAUUACGUCUU | -0.945 ± 0.16 | -0.491 ± 0.19
CUAGAGCAAUAUUACGCUUA | -3.65 ± 0.3 | -2.77 ± 0.26
UUGAAGCAAUAUUACGCUGG | -0.756 ± 0.094 | -0.221 ± 0.15
GUUAAGCAAUAUUACGGGAA | -1.87 ± 0.34 | -1.86 ± 0.29
UCAAAGCAAUAUUACGCGUG | -1.31 ± 0.057 | -0.871 ± 0.066
GUCAAGCAAUAUUACGAGAA | -3.59 ± 0.36 | -1.83 ± 0.2
GUUGAGCAAUAUUACGGUUG | -3.56 ± 0.35 | -1.38 ± 0.38
ACCGAGCAAUAUUACGUACC | -3.88 ± 0.33 | -2.37 ± 0.44
GUUAAGCAAUAUUACGAGAC |  | -0.662 ± 0.25
GUCCAGCAAUAUUACGCAGU | -0.463 ± 0.046 | -0.161 ± 0.058
